Measurements: publication PMC10403523, “The AT-hook is an evolutionarily conserved auto-regulatory domain of SWI/SNF required for cell lineage priming” (Nature Communications, 2023)

Biological target: T1, histone H4 of Xenopus laevis, in the 29N59 nucleosome (Xenopus laevis, UniProt P62799 1-103)
T1 construct: histone H4, Xenopus laevis; Stood within the nucleosome in the cross-linking
Assay: cross-linking; BS3 cross-linking with mass spectrometry (CX-MS): 35 nM FLAG tagged SWI/SNF, 35 nM 29-N-59 nucleosomes, 200 nM Gal4-VP16, 115 μM BS3, room temperature, 2 h
Conditions: both partners purified

- binding result: binds
B1: Snf2, catalytic subunit of yeast SWI/SNF, with a C-terminal double FLAG epitope (enzyme)
chain: MNIPQRQFSNEEVNRCYLRWQHLRNEHGMNAPSVPEFIYLTKVLQFAAKQRQELQMQRQQQGISGSQQNIVPNSSDQAELPNNASSHISASASPHLAPNMQLNGNETFSTSAHQSPIMQTQMPLNSNGGNNMLPQRQSSVGSLNATNFSPTPANNGENAAEKPDNSNHNNLNLNNSELQPQNRSLQEHNIQDSNVMPGSQINSPMPQQAQMQQAQFQAQQAQQAQQAQQAQQAQARLQQGRRLPMTMFTAEQSELLKAQITSLKCLVNRKPIPFEFQAVIQKSINHPPDFKRMLLSLSEFARRRQPTDQNNQSNLNGGNNTQQPGTNSHYNNTNTDNVSGLTRNAPLDSKDENFASVSPAGPSSVHNAKNGTLDKNSQTVSGTPITQTESKKEENETISNVAKTAPNSNKTHTEQNNPPKPQKPVPLNVLQDQYKEGIKVVDIDDPDMMVDSFTMPNISHSNIDYQTLLANSDHAKFTIEPGVLPVGIDTHTATDIYQTLIALNLDTTVNDCLDKLLNDECTESTRENALYDYYALQLLPLQKAVRGHVLQFEWHQNSLLTNTHPNFLSKIRNINVQDALLTNQLYKNHELLKLERKKTEAVARLKSMNKSAINQYNRRQDKKNKRLKFGHRLIATHTNLERDEQKRAEKKAKERLQALKANDEEAYIKLLDQTKDTRITHLLRQTNAFLDSLTRAVKDQQKYTKEMIDSHIKEASEEVDDLSMVPKMKDEEYDDDDDNSNVDYYNVAHRIKEDIKKQPSILVGGTLKDYQIKGLQWMVSLFNNHLNGILADEMGLGKTIQTISLLTYLYEMKNIRGPYLVIVPLSTLSNWSSEFAKWAPTLRTISFKGSPNERKAKQAKIRAGEFDVVLTTFEYIIKERALLSKVKWVHMIIDEGHRMKNAQSKLSLTLNTHYHADYRLILTGTPLQNNLPELWALLNFVLPKIFNSVKSFDEWFNTPFANTGGQDKIELSEEETLLVIRRLHKVLRPFLLRRLKKDVEKELPDKVEKVVKCKMSALQQIMYQQMLKYRRLFIGDQNNKKMVGLRGFNNQIMQLKKICNHPFVFEEVEDQINPTRETNDDIWRVAGKFELLDRILPKLKATGHRVLIFFQMTQIMDIMEDFLRYINIKYLRLDGHTKSDERSELLRLFNAPDSEYLCFILSTRAGGLGLNLQTADTVIIFDTDWNPHQDLQAQDRAHRIGQKNEVRILRLITTNSVEEVILERAYKKLDIDGKVIQAGKFDNKSTSEEQEALLRSLLDAEEERRKKRESGVEEEEELKDSEINEILARNDEEMAVLTRMDEDRSKKEEELGVKSRLLEKSELPDIYSRDIGAELKREESESAAVYNGRGARERKTATYNDNMSEEQWLRQFEVSDDEKNDKQARKQRTKKEDKSEAIDGNGEIKGENIDADNDGPRINNISAEDRADTDLAMNDDDFLSKKRKAGRPRGRPKKVKLEGSENSEPPALESSPVTGDNSPSEDFMDIPKPRTAGKTSVKSARTSTRGRGRGRGRGRGRGRGRGRPPKARNGLDYVRTPAAATSPIDIREKVAKQALDLYHFALNYENEAGRKLSDIFLSKPSKALYPDYYMIIKYPVAFDNINTHIETLAYNSLKETLQDFHLIFSNARIYNTEGSVVYEDSLELEKVVTKKYCEIMGDNSQLDFTEFDEQYGTRPLVLPPVVTSSVAESFTDEADSSMTEASV
notes: Snf2, catalytic subunit of SWI/SNF, S. cerevisiae; also called WT; SNF2-2FLAG; source: S. cerevisiae, SNF2-2FLAG in a Δsnf2 strain; not shown: FLAG x2, C-terminal, kept
